# From patent US20220096653A1, “CONJUGATE COMPRISING LIGAND AND CEACAM5 ANTIBODY FAB FRAGMENT” (ASTELLAS PHARMA INC., priority 2019, published 2022)
# Read-outs that look alike come from different tables or passages of the source.
# Tests used:
# [1] = Kidney accumulation evaluation test of Gd-labeled conjugates, normal mice (Example 4-1)
# Description: (§1) A Gd-labeled conjugate of the conjugate containing a peptide linker produced in one of the above Examples was administered from the tail vein of mice (BALB/c or BALB/c nu/nu) so that the protein mass was 0.02 mg (100 μL) per animal. After about 24 hours, the mice were sacrificed and the kidneys were removed, and the amount of Gd in the kidneys was measured using ICP-MS. The present test was carried out in 3 cases in each group, the mean value of the 3 cases was calculated, and the amount of Gd contained per kidney after administration was shown as a percentage (% of dose/tissue) of the total amount of Gd administered.
# Based on the percentage of the control conjugate (% of dose/tissue), the proportion of decrease in the amount of Gd contained in the kidneys of each of the conjugates having a peptide linker was determined and shown in Table 28.
# [2] = parameters: species or system mice (BALB/c or BALB/c nu/nu); conditions: mouse, in vivo
# Description: as §1
# [3] = parameters: species or system mice (BALB/c nu/nu); conditions: mouse, in vivo
# Description: A Gd-labeled conjugate of the conjugate containing a peptide linker produced in one of the above Examples was administered from the tail vein of tumor-bearing mice so that the protein mass was 0.02 mg (100 μL) per animal. As the tumor-bearing mice used in the present Example, mice (BALB/c nu/nu) that were in a tumor-bearing state brought about by transplanting human colorectal cancer cell line LS174T cells (ATCC(registered trademark); CL-188) at 2.0 to 5.0×10^6 cells/mouse subcutaneously on the back before administration of the sample were used. 24 hours after administration of the sample, the mice were sacrificed, the kidneys and the tumor were removed, and the amounts of Gd in the kidneys and in the tumor were measured using ICP-MS. The present test was carried out in 3 cases in each group, and the mean value of the 3 cases was calculated. The amount of Gd contained per kidney after administration was shown as a percentage of the amount of Gd administered (% of dose/tissue), and the amount of Gd contained per g of tumor tissue was shown as a percentage of the total amount of Gd administered (% of dose/g).
# [4] = mouse, in vivo
# Description: as §1
Molecule,Renal residual amount (normal mice) % of dose/tissue [2],Renal residual amount (normal mice) Proportion of decrease [2] [%],Renal residual amount (normal mice) % of dose/tissue [4],Renal residual amount (normal mice) Proportion of decrease [4] [%],further results
"[Gd/4arm-DOTA-CH2-(1,4-Ph)-NH—C(═S)-Gly-Phe-Lys*-Z2(#N)]p-Fab^2 (conjugate) heavy: EVQLVESGGGLVQPGGSLRLSCAASGFNIRDTYMHWVRQAPGKGLEWVARIDPANGNSRYVPKFQGRFTISADTSRNTAYLQMNSLRAEDTAVYYCAPFGYYVSDYAMAYWGQGTLVTVSSASTKGPSVFPLAPSSKSTSGGTAALGCLVKDYFPEPVTVSWNSGALTSGVHTFPAVLQSSGLYSLSSVVTVPSSSLGTQTYICNVNHKPSNTKVDKKVEPKSCD light: DIQLTQSPSSLSASVGDRVTITCRAGESVDIFGVGFLHWYQQKPGKAPKLLIYRASNLESGIPSRFSGSGSRTDFTLTISSLQPEDFATYYCQQTNEDPYTFGQGTKVEIKRTVAAPSVFIFPPSDEQLKSGTASVVCLLNNFYPREAKVQWKVDNALQSGNSQESVTEQDSKDSTYSLSSTLTLSKADYEKHKVYACEVTHQGLSSPVTKSFNRGEC",,,,,"Proportion of decrease (amount of Gd contained in the kidneys) ([1]; based on control conjugate Ex-No. 47, about 24 hours): 68.0%; % of dose/tissue (amount of Gd contained per kidney) ([1]; tail vein, 0.02 mg protein per animal, about 24 hours, ICP-MS, mean of 3 cases): 9.9 % of dose/tissue"
Ex-No 10: (Y—S1—X)p-Fab^2: Y Gd/DOTA; S1 bond; X -Met-Ile-Lys*-Z2(#N)— (conjugate) heavy: EVQLVESGGGLVQPGGSLRLSCAASGFNIRDTYMHWVRQAPGKGLEWVARIDPANGNSRYVPKFQGRFTISADTSRNTAYLQMNSLRAEDTAVYYCAPFGYYVSDYAMAYWGQGTLVTVSSASTKGPSVFPLAPSSKSTSGGTAALGCLVKDYFPEPVTVSWNSGALTSGVHTFPAVLQSSGLYSLSSVVTVPSSSLGTQTYICNVNHKPSNTKVDKKVEPKSCD light: DIQLTQSPSSLSASVGDRVTITCRAGESVDIFGVGFLHWYQQKPGKAPKLLIYRASNLESGIPSRFSGSGSRTDFTLTISSLQPEDFATYYCQQTNEDPYTFGQGTKVEIKRTVAAPSVFIFPPSDEQLKSGTASVVCLLNNFYPREAKVQWKVDNALQSGNSQESVTEQDSKDSTYSLSSTLTLSKADYEKHKVYACEVTHQGLSSPVTKSFNRGEC,20.10 % of dose/tissue,31.46,,,
[Gd/DOTA]p-Fab^2 (conjugate) heavy: EVQLVESGGGLVQPGGSLRLSCAASGFNIRDTYMHWVRQAPGKGLEWVARIDPANGNSRYVPKFQGRFTISADTSRNTAYLQMNSLRAEDTAVYYCAPFGYYVSDYAMAYWGQGTLVTVSSASTKGPSVFPLAPSSKSTSGGTAALGCLVKDYFPEPVTVSWNSGALTSGVHTFPAVLQSSGLYSLSSVVTVPSSSLGTQTYICNVNHKPSNTKVDKKVEPKSCD light: DIQLTQSPSSLSASVGDRVTITCRAGESVDIFGVGFLHWYQQKPGKAPKLLIYRASNLESGIPSRFSGSGSRTDFTLTISSLQPEDFATYYCQQTNEDPYTFGQGTKVEIKRTVAAPSVFIFPPSDEQLKSGTASVVCLLNNFYPREAKVQWKVDNALQSGNSQESVTEQDSKDSTYSLSSTLTLSKADYEKHKVYACEVTHQGLSSPVTKSFNRGEC,,,31.33 % of dose/tissue,,Renal residual amount (normal mice) Mean [2]: 29.33 % of dose/tissue; Renal residual amount (tumor-bearing mice) Mean [3]: 25.83 % of dose/tissue
"[Gd/DOTA-NH—CH2-(1,4-Ph)-NH—C(═O)-Met-Ile-NH—(CH2)2—Z1(#N)]p-Fab^2 (conjugate) heavy: EVQLVESGGGLVQPGGSLRLSCAASGFNIRDTYMHWVRQAPGKGLEWVARIDPANGNSRYVPKFQGRFTISADTSRNTAYLQMNSLRAEDTAVYYCAPFGYYVSDYAMAYWGQGTLVTVSSASTKGPSVFPLAPSSKSTSGGTAALGCLVKDYFPEPVTVSWNSGALTSGVHTFPAVLQSSGLYSLSSVVTVPSSSLGTQTYICNVNHKPSNTKVDKKVEPKSCD light: DIQLTQSPSSLSASVGDRVTITCRAGESVDIFGVGFLHWYQQKPGKAPKLLIYRASNLESGIPSRFSGSGSRTDFTLTISSLQPEDFATYYCQQTNEDPYTFGQGTKVEIKRTVAAPSVFIFPPSDEQLKSGTASVVCLLNNFYPREAKVQWKVDNALQSGNSQESVTEQDSKDSTYSLSSTLTLSKADYEKHKVYACEVTHQGLSSPVTKSFNRGEC",2.60 % of dose/tissue,91.13,,,Renal residual amount (tumor-bearing mice) % of dose/tissue [3]: 5.77 % of dose/tissue; Renal residual amount (tumor-bearing mice) Proportion of decrease [3]: 77.68%
"[Gd/DOTA-NH—CH2-(1,4-Ph)-NH—C(═O)-Met-Ile-NH—(CH2)2-(A-3)]p-Fab^2 (conjugate) heavy: EVQLVESGGGLVQPGGSLRLSCAASGFNIRDTYMHWVRQAPGKGLEWVARIDPANGNSRYVPKFQGRFTISADTSRNTAYLQMNSLRAEDTAVYYCAPFGYYVSDYAMAYWGQGTLVTVSSASTKGPSVFPLAPSSKSTSGGTAALGCLVKDYFPEPVTVSWNSGALTSGVHTFPAVLQSSGLYSLSSVVTVPSSSLGTQTYICNVNHKPSNTKVDKKVEPKSCD light: DIQLTQSPSSLSASVGDRVTITCRAGESVDIFGVGFLHWYQQKPGKAPKLLIYRASNLESGIPSRFSGSGSRTDFTLTISSLQPEDFATYYCQQTNEDPYTFGQGTKVEIKRTVAAPSVFIFPPSDEQLKSGTASVVCLLNNFYPREAKVQWKVDNALQSGNSQESVTEQDSKDSTYSLSSTLTLSKADYEKHKVYACEVTHQGLSSPVTKSFNRGEC",,,1.43 % of dose/tissue,95.38,
"[Gd/DOTA-NH—CH2-(1,4-Ph)-NH—C(═O)-Met-Ile-NH—(CH2)2-(A-4 and/or A-5)]p-Fab^2 (conjugate) heavy: EVQLVESGGGLVQPGGSLRLSCAASGFNIRDTYMHWVRQAPGKGLEWVARIDPANGNSRYVPKFQGRFTISADTSRNTAYLQMNSLRAEDTAVYYCAPFGYYVSDYAMAYWGQGTLVTVSSASTKGPSVFPLAPSSKSTSGGTAALGCLVKDYFPEPVTVSWNSGALTSGVHTFPAVLQSSGLYSLSSVVTVPSSSLGTQTYICNVNHKPSNTKVDKKVEPKSCD light: DIQLTQSPSSLSASVGDRVTITCRAGESVDIFGVGFLHWYQQKPGKAPKLLIYRASNLESGIPSRFSGSGSRTDFTLTISSLQPEDFATYYCQQTNEDPYTFGQGTKVEIKRTVAAPSVFIFPPSDEQLKSGTASVVCLLNNFYPREAKVQWKVDNALQSGNSQESVTEQDSKDSTYSLSSTLTLSKADYEKHKVYACEVTHQGLSSPVTKSFNRGEC",,,2.43 % of dose/tissue,92.15,
